Values quoted from earlier work in article PMC3526765.

Molecular target: Cys30 (UniProt position 49, FFSFFCPHCYQ)
Details: reduced DsbA (free Cys30 thiol/thiolate); inferred from context, not stated explicitly

Thiol:disulfide interchange protein DsbA (EcDsbA) (Escherichia coli (K12))
pKa: ~3.3
